Key:
Assay in all cases: ITC
[1] = biological target: human GABARAP (1-116), O95166; settings: chain shown with the change
[2] = biological target: T1, FAM134B^444–470 peptide, Q9H6L5; settings: chain shown with the change
T1 chain: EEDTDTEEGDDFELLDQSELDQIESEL

[3] = biological target: T2, SEC62^355–376 peptide, Q99442; settings: chain shown with the change
T2 chain: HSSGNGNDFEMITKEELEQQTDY

[4] = biological target: T3, Atg8 (1-116) K26P, P38182; settings: chain shown with the change; Atg8 (1.8 mM)
T3 chain: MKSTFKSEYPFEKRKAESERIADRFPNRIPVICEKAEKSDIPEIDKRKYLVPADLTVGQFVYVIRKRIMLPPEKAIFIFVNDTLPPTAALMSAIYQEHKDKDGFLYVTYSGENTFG

GPHSSGNGNDFAMITKEALEQQTDY [SEC62^355–376 peptide, Q99442 E364A; E370A] showed a Kd [1] of 35.1 µM.

B1: human GABARAP (1-116), O95166 R67A (protein)
chain: MKFVYKEEHPFEKRRSEGEKIRKKYPDRVPVIVEKAPKARIGDLDKKKYLVPSDLTVGQFYFLIRKAIHLRAEDALFFFVNNVIPPTSATMGQLYQEHHEEDFFLYIAYSDESVYG
For B1, the Kd [2] was 1.88 µM and the Kd [3] was 9.43 µM.

Work on GPEEDTDTEEGDDAELLDQSELDQIESELY [FAM134B^444–470 peptide, Q9H6L5 F455A] yielded a Kd [1] of 3.55 µM.

Work on EFPNDYAFMEAILDET [Atg40^237–252 peptide, Q99325 D243A; D247A] yielded a Kd [4] of 83.3 µM.
